Biological target: PP1α_(7-330), His6-tag removed by TEV protease (UniProt P62136 7-330)
Experiment: SEC

PP1α_(7-330), His6-tag removed by TEV protease, sequence (P62136 7-330): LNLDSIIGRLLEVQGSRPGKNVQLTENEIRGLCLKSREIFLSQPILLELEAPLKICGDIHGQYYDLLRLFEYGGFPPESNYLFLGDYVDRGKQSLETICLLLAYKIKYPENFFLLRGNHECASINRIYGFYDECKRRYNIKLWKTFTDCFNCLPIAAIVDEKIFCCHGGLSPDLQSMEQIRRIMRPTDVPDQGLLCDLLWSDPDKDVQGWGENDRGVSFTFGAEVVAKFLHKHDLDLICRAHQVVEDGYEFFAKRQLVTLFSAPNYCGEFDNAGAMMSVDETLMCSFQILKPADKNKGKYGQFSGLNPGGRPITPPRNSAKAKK

B1: spinophilin_(417-583) (domain or fragment)
chain: not shown
With B1 the “stoichiometry N” value was 1.

Reference: article PMC3040262 (Biochemistry, 2011)
